Experimental data taken from patent publication US7265263B1, “Potato transcription factors, methods of use thereof, and a method for enhancing tuber development” (Iowa State University Research Foundation, Inc., priority 2002, dated 2007).

B1: StBEL-30 protein from pGEM11Z (in vitro transcription/translation) (other)
chain: MATYFPSPNNQRDADQTFQYFRQSLPESYSEASNAPENMMVFMNYSSSGAYSDMLTGTSQQQHNCIDIPSIGATPFNTSQQEILSNLGGSQMGIQDFSSWRDSRNEMLADNVFQVAQNVQGQGLSLSLGSNIPSGIGISHVQSQNPNQGGGFNMSFGDGDNSQPKEQRNADYFPPDNPGRDLDAMKGYNSPYGTSSIARTIPSSKYLKAAQYLLDEVVSVRKAIKEQNSKKELTKDSRESDVDSKNISSDTPANGGSNPHESKNNQSELSPTEKQEVQNKLAKLLSMLDEIDRRYRQYYHQMQIVVSSFDVVAGEGAAKPYTALALQTISRHFRCLRDAICDQIRASRRSLGEQDASENSKAIGISRLRFVDHHIRQQRALQQLGMMQQHAWRPQRGLPESSVSVLRAWLFEHFLHPYPKDSDKIMLARQTGLTRSQVSNWFINARVRLWKPMVEEMYKEEAGDAKIDSNSSSDVAPRLATKDSKVEERGELHQNAASEFEQYNSGQILESKSNHEADVEMEGASNAETQSQSGMENQTGEPLPAMDNCTLFQDAFVQSNDRFSEFGSFGSGNVLPNGVSLTLGLQQGEGSNLPMSIETHVSYVPLRADDMYSTAPTTMVPETAEFNCLDSGNRQQPFWLLPSAT
notes: 35S-methionine labelled prey; also called p11Z-30
B2: StBEL-13 protein from pGEM11Z (in vitro transcription/translation) (other)
chain: MVMGGGASSQQLGYAKNHTPNVAESMQLFLMNPQPRSPSPSPPNSTSSTLHMLLPNPSSTSTLQGFPNPAEGSFGQFITWGNGGASAATATHHLNAQNEIGGVNVVESQGLSLSLSSSLQHKAEELQMSGEAGGMMFFNQGGSSTSGQYRYKNLNMGGSGVSPNIHQVHVGYGSSLGVVNVLRNSKYAKAAQELLEEFCSVGRGKLKKTNNKAAANNPNTNPSGANNEASSKDVPTLSAADRIEHQRRKVKLLSMVDEVDRRYNHYCEQMQMVVNSFDLVMGFGTAVPYTALAQKAMSRHFRCLKDAIGAQLKQSCELLGEKDAGNSGLTKGETPRLKMLEQSLRQQRAFHQMGMMEQEAWRPQRGLPERSVNILRAWLFEHFLHPYPSDADKHLLARQTGLSRNQVSNWFINARVRLWKPMVEDMYQQEAKDEDGDGDEKSQSQNSGNNIIAQTPTPNSLTNTSSTNMTTTTAPTTTTALAAAETGTAATPITVTSSKRSQINATDSDPSLVAINSFSENQATFPTNIHDPDDCRRGNLSGDDGTTTHDHMGSTMIRFGTTAGDVSLTLGLRHAGNLPENTHFFG
notes: 35S-methionine labelled prey; also called p11Z-13
B3: pBHD9 construct as used in the in vitro binding protocol (other)
chain: MDDEMYGFHSTRDDYADKALMSPENLMMQTEYNNFHNYTNSSILTSNPMMFGSDDIQLSSEQTNSFSTMTLQNNDNIYQIRSGNCGGGSGSGGSSKDHNDNNNNNEDYDEDGSN
B4: pAD5-1 (StBEL-05 deletion construct in pGAD) (other, not shown: small tags and cut ends)
chain: KNEVAVELTTAQRQELQMKKAKLLAMLEEVEQRYRQYHHQMQIIVLSFEQVAGIGSAKSYTQLALHAISKQFRCLKDAIAEQVKATSKSLGEEEGLGGKIEGSRLKFVDHHLRQQRALQQIGMMQPNAWRPQRGLPERAVSVLRAWLFEHFLHPYPKDSDKIMLAKQTGLTRSQVSNWFINARVRLWKPMVEEMYLEEVKNQEQNSTNTSGDNKNKETNISAPNEEKHPIITSSLLQDGITTTQAEISTSTISTSPTAGASLHHAHNFSFLGSFNMDNTTTTVDHIENNAKKQRNDMHKFSPSSILSSVDMEAKARESSNKGFTNPLMAAYAMGDFGRFDPHDQQMTANFHGNNGVSLTLGLPPSENLAMPVSQQNYLSNDLGSRSEMGSHYNRMGYENIDFQSGNKRFPTQLLPDFVTGNLGT
notes: Lacks the SKY box; residues converted from pAD-05 numbering

What was measured:
POTH1 [1] = experiment: Yeast two-hybrid interaction with POTH1; assay type: binding, Solanum tuberosum; settings: nutritional selection and lacZ activation, yeast AH109
Source text: (§1) The Matchmaker two-hybrid system (Clontech, Calif.) was used for the yeast two-hybrid screen. Yeast transformation and plasmid rescue into DH5-α E. coli cells were according to the manufacturer's instructions. Full-length POTH1 was cloned into the pBridge (Clontech, Calif.) vector and used as bait to screen the potato (S. tuberosum ‘Desireé’) stolon cDNA library in pAD-GAL4-2.1 (Stratagene, Calif.). Positive interactions were confirmed by cotransforming yeast strain AH109 with each purified pAD plasmid and pBridge: POTH1 and plating on -leucine/-tryptophan (transformation control) and -leucine/-tryptophan/-histidine/-adenine (selection) nutrient medium. Induction of the AH109 reporter gene, lacZ, was measured with a yeast β-galactosidase assay kit (Pierce Chemicals). β-galactosidase activity (FIG. 9B) was determined from a known density of yeast cells and calculated as 1000×OD420/time of color reaction (minutes)×volume of yeast culture (ml)×OD600.
The StBEL-05 deletion constructs were amplified by PCR, then cloned into the vector, pGAD, in-frame with the GAL4 activation domain. POTH1 deletion constructs were amplified by PCR, and cloned into pBridge (Clontech) in-frame with the GAL4 binding domain. Sequencing of selected cDNAs and constructs was performed at the Iowa State University DNA Facility. For deletion analysis, modified constructs of POTH1 were cloned into the pBridge vector for fusion with the DNA-binding domain of GAL4 (FIG. 10A). For StBEL-05, constructs were cloned into the pGAD vector for fusion with the activating domain of GAL4 (FIG. 10B). Deletion constructs were made from both the amino and carboxy termini. These mutants were then tested for interaction in the yeast two-hybrid system by cotransforming into yeast strain AH109 with the corresponding full-length partner (StBEL-05 in pGAL4 or POTH1 in pBridge). All constructs were sequenced to verify that they were in-frame. Positive interactions were verified for lacZ induction by using a β-galactosidase assay (Pierce Chemical Company). For POTH1, seven deletion constructs were tested (FIG. 10A). For the BEL TFs, a fusion construct of StBEL-05 (653 aa of StBEL-05 sequence) and nine deletion constructs were tested (FIG. 10B).

POTH1 [2] = experiment: In vitro binding assay (immunoprecipitation) with POTH1; design: species or system Solanum tuberosum; settings: in vitro transcription/translation, anti-GAD
Protocol: In vitro binding experiments were performed as described by Ni et al., “PIF3, a Phytochrome-Interacting Factor Necessary for Normal Photoinduced Signal Transduction, is a Novel Basic Helix-Loop-Helix Protein,” Cell 95:657-667 (1998), which is hereby incorporated by reference in its entirety. The full-length sequence for POTH1 was cloned into a pET17b/GAD fusion cassette and transcribed under the control of the T7 promoter. […] Each 50 μl TnT reaction contained 2.0 μg of template plasmid DNA and 20 μmol (20 μCi) of labeled ^35S-methionine. The POTH1:GAD/BEL complex was immunoprecipitated with anti-GAD antibodies (Santa Cruz Biotechnology, Calif.). The proteins from the pellet (one-half the fraction) and for the prey (one-fourth of the reaction volume) were resolved on a 10% SDS-PAGE gel and visualized by autoradiography.

GAD protein alone = target: T1, GAD protein alone (UniProt P04386 768-881, limits assumed); experiment: in vitro translated 35S-labelled proteins, immunoprecipitation with anti-GAD antibodies
T1 construct: Control of the immunoprecipitation
T1 sequence (looked up): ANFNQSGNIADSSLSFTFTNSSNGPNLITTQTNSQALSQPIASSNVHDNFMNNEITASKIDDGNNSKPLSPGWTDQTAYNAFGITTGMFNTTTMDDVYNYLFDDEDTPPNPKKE
Protocol: (§2) In vitro binding experiments were performed as described by Ni et al., "PIF3, a Phytochrome-Interacting Factor Necessary for Normal Photoinduced Signal Transduction, is a Novel Basic *Helix*-Loop-Helix Protein," *Cell* 95:657-667 (1998), which is hereby incorporated by reference in its entirety. The full-length sequence for POTH1 was cloned into a pET17b/GAD fusion cassette and transcribed under the control of the T7 promoter. The BEL cDNAs were cloned into pGEM11Z vectors and were transcribed under the control of the T7 promoter. ^35S-methionine labeled bait and prey proteins were synthesized using the TnT in vitro transcription-translation kit (Promega) according to the manufacturer's protocols. Each 50 μl TnT reaction contained 2.0 μg of template plasmid DNA and 20 μmol (20 μCi) of labeled ^35S-methionine. The POTH1:GAD/BEL complex was immunoprecipitated with anti-GAD antibodies (Santa Cruz Biotechnology, Calif.). The proteins from the pellet (one-half the fraction) and for the prey (one-fourth of the reaction volume) were resolved on a 10% SDS-PAGE gel and visualized by autoradiography.

GAD:POTH1 fusion protein [3] = target: T2, GAD:POTH1 fusion protein (Solanum tuberosum); experiment: in vitro translated 35S-labelled proteins, co-immunoprecipitation with anti-GAD antibodies, SDS-PAGE autoradiography
T2 construct: 35S-methionine labelled, made by in vitro transcription/translation for the immunoprecipitation; also called POTH1:GAD
T2 chain: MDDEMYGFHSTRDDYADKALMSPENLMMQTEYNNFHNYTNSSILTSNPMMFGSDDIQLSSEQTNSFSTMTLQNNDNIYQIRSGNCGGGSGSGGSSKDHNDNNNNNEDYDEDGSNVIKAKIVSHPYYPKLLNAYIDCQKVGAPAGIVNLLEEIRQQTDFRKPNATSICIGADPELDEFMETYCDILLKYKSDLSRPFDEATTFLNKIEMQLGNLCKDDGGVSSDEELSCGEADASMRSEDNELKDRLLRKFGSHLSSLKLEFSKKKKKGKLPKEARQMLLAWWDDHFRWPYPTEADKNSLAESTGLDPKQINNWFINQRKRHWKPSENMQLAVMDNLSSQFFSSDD
Protocol: as §2

GAD:POTH1 fusion protein [4] = target: T2, GAD:POTH1 fusion protein; experiment: in vitro transcription/translation, immunoprecipitation assay
Protocol: as §2

[5] = target: T3, StBEL-05 protein from pGEM11Z (in vitro transcription/translation) (Solanum tuberosum); experiment: in vitro binding protocol (pull-down)
T3 construct: 35S-methionine labelled prey; also called p11Z-5
T3 chain: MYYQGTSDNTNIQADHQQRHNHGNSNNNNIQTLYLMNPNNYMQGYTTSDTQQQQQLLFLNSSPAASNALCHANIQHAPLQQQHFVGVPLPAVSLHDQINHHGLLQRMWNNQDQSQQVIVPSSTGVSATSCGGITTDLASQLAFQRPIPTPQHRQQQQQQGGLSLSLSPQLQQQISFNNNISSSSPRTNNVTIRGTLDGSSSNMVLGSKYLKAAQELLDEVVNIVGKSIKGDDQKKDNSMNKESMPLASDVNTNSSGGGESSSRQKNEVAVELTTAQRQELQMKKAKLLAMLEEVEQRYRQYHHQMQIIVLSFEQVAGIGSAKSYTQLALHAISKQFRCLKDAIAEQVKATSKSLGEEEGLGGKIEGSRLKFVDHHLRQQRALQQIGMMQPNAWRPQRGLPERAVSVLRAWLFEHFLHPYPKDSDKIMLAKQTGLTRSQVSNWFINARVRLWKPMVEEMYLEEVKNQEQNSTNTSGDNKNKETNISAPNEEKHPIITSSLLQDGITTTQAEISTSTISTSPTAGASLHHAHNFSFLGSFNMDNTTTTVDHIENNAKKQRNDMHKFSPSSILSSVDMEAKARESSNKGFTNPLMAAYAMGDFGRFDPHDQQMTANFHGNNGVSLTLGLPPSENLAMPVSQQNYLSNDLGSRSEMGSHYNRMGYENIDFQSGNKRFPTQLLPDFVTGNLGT
Protocol: as §2

[6] = target: T4, POTH1 in pBridge (full-length POTH1 fused with the GAL4 DNA-binding domain) (Solanum tuberosum); experiment: quantitative yeast two-hybrid beta-galactosidase assay
T4 construct: Bait of the yeast two-hybrid screen and partner of the StBEL-05 deletion constructs; also called pBHD; pBridge:POTH1
Source text: as §1, with “*E. coli*” for “E. coli”, “(*S. tuberosum* 'Desireé')” for “(S. tuberosum ‘Desireé’)”, “1000 ×OD420/time” for “1000×OD420/time”, “(ml)×$OD600$.” for “(ml)×OD600.”
The StBEL-05 deletion constructs were amplified by PCR, then cloned into the vector, pGAD, in-frame with the GAL4 activation domain. POTH1 deletion constructs were amplified by PCR, and cloned into pBridge (Clontech) in-frame with the GAL4 binding domain. Sequencing of selected cDNAs and constructs was performed at the Iowa State University DNA Facility. […]

Row | Molecule | interaction with POTH1 (POTH1 [1]) | pull-down by POTH1 in immunoprecipitation (POTH1 [2]) | binding result (GAD protein alone) | binding result (GAD:POTH1 fusion protein [3]) | binding result (GAD:POTH1 fusion protein [4]) | binding result [5] | decrease in the induction of the lacZ marker (beta-galactosidase activity) relative to the full-length construct, StBEL-05 [6]
1 | B1 | showed selective interaction | pulled down | no binding | binds | – | – | –
2 | B2 | showed selective interaction | pulled down | no binding | – | binds | – | –
3 | B3 | – | – | – | – | – | no binding | –
4 | B4 | – | – | – | – | – | – | 55%
